Test results from IntAct's records for PubMed 24510904.

B1: BAG family molecular chaperone regulator 5 (Homo sapiens), Q9UL15 (parent)
chain: MDMGNQHPSISRLQEIQKEVKSVEQQVIGFSGLSDDKNYKKLERILTKQLFEIDSVDTEGKGDIQQARKRAAQETERLLKELEQNANHPHRIEIQNIFEEAQSLVREKIVPFYNGGNCVTDEFEEGIQDIILRLTHVKTGGKISLRKARYHTLTKICAVQEIIEDCMKKQPSLPLSEDAHPSVAKINFVMCEVNKARGVLIALLMGVNNNETCRHLSCVLSGLIADLDALDVCGRTEIRNYRREVVEDINKLLKYLDLEEEADTTKAFDLRQNHSILKIEKVLKRMREIKNELLQAQNPSELYLSSKTELQGLIGQLDEVSLEKNPCIREARRRAVIEVQTLITYIDLKEALEKRKLFACEEHPSHKAVWNVLGNLSEIQGEVLSFDGNRTDKNYIRLEELLTKQLLALDAVDPQGEEKCKAARKQAVRLAQNILSYLDLKSDEWEY
B2: Ras-related protein Rab-7L1 (Homo sapiens), O14966 (parent)
chain: MGSRDHLFKVLVVGDAAVGKTSLVQRYSQDSFSKHYKSTVGVDFALKVLQWSDYEIVRLQLWDIAGQERFTSMTRLYYRDASACVIMFDVTNATTFSNSQRWKQDLDSKLTLPNGEPVPCLLLANKCDLSPWAVSRDQIDRFSKENGFTGWTETSVKENKNINEAMRVLIEKMMRNSTEDIMSLSTQGDYINLQTKSSSWSCC

Variants of: B1
Settings: with lrrk2_human LRRK2, Q5S007
Chain of lrrk2_human LRRK2, Q5S007 (Q5S007 whole entry): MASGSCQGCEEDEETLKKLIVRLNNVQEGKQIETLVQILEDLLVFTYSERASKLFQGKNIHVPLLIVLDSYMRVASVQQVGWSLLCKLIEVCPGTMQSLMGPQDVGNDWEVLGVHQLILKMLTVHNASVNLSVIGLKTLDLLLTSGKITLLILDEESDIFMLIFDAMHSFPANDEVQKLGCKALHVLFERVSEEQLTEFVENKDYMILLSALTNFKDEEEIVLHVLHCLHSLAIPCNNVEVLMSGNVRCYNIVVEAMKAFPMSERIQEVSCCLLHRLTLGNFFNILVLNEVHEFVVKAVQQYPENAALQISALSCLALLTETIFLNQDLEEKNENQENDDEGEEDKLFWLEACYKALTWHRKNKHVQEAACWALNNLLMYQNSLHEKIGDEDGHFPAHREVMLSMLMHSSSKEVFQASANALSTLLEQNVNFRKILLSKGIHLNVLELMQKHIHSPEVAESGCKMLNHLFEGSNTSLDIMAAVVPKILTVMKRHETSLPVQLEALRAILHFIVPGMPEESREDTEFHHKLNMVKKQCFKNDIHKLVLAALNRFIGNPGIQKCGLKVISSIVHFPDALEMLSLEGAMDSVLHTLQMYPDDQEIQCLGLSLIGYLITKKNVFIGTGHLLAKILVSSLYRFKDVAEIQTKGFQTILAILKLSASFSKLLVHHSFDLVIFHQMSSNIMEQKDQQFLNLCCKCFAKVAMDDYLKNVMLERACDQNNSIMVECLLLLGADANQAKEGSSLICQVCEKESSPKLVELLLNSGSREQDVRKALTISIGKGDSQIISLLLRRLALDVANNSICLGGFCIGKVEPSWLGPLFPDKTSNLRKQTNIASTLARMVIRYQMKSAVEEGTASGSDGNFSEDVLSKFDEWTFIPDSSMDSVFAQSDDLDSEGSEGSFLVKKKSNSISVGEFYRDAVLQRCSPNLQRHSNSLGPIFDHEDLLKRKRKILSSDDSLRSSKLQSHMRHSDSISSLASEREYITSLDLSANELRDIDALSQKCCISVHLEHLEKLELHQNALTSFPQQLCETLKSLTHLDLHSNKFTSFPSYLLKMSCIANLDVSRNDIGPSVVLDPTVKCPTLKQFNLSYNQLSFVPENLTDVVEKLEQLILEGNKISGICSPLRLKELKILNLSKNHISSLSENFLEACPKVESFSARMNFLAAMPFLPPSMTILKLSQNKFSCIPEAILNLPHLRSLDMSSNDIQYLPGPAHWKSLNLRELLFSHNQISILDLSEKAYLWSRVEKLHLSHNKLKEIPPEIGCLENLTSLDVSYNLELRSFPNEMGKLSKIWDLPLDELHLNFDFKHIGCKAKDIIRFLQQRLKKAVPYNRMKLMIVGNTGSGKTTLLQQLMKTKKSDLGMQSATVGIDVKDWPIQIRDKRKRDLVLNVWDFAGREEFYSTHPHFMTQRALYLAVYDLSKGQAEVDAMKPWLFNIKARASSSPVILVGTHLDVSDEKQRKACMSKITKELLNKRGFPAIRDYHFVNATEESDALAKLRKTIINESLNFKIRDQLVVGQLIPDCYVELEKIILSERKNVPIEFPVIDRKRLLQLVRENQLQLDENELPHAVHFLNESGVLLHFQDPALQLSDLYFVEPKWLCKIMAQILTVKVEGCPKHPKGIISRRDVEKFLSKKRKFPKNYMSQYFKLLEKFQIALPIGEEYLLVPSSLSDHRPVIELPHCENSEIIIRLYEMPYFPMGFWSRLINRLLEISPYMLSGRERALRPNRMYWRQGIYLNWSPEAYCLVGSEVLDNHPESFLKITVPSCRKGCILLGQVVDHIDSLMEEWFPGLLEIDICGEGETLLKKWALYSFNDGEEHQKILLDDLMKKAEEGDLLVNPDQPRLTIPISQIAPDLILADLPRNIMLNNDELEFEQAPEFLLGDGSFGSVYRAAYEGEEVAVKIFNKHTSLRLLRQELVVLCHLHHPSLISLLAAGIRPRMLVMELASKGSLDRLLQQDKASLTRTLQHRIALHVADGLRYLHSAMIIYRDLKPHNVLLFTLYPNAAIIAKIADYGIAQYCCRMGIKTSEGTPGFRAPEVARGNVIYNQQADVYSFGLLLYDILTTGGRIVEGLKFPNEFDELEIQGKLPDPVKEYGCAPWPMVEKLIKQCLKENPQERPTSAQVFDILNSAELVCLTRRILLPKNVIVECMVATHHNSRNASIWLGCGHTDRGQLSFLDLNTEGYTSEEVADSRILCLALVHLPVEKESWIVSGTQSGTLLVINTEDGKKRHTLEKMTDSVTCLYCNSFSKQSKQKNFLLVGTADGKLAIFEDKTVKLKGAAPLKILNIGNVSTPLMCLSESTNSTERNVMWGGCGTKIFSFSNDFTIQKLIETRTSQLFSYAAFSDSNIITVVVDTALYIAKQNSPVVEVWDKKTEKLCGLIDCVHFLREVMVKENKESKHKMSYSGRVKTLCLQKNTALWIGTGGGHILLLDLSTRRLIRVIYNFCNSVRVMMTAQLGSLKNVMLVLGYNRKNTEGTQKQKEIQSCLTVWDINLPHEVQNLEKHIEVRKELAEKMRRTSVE

| effect of a mutation on the interaction | Variant |
| --- | --- |
| decreasing interaction | D54A;R68A;D228A;R242A;D318A;R332A;D410A;R424A |

Variants of: B2
Settings: with lrrk2_human LRRK2, Q5S007

| effect of a mutation on the interaction | Variant |
| --- | --- |
| increasing interaction | Q67L |
| increasing interaction | T21N |

Variants of: B2
Settings: with lrrk2_human LRRK2, Q5S007
Remark: another data set of the same source

| effect of a mutation on the interaction | Variant |
| --- | --- |
| disrupting interaction | Q67L |
